# Laboratory results: paper PMC4585926, “A RANKL mutant used as an inter-species vaccine for efficient immunotherapy of osteoporosis” (Scientific Reports, 2015)
# B1: human RANKL ectodomain (residues 158-317), wild type [human] / mouse RANK extracellular domain [mouse] (parent complex)
# chain 1: SKLEAQPFAHLTINATDIPSGSHKVSLSSWYHDRGWAKISNMTFSNGKLIVNQDGFYYLYANICFRHHETSGDLATEYLQLMVYVTKTSIKIPSSHTLMKGGSTKYWSGNSEFHFYSINVGGFFKLRSGEEISIEVSNPSLLDPDQDATYFGAFKVRDID
# chain 2: VTPPCTQERHYEHLGRCCSRCEPGKYLSSKCTPTSDSVCLPCGPDEYLDTWNEEDKCLLHKVCDAGKALVAVDPGNHTAPRRCACTAGYHWNSDCECCRRNTECAPGFGAQHPLQLNKDTVCTPCLLGFFSDVFSSTDKCKPWTNCTLLGKLEAHQGTTESDVVCSSSMTLRRPPKEAQAYLPS
# Variants of: B1
# Assay: SPR (Biacore, chelating NTA sensor chip); hRANKL or mutant injected at 0, 0.47, 0.94, 1.88, 3.75, 7.5, 15 and 30 nM; parent: 0.156 nM
row,Kd [nM],Variant
1,39.4,chain 1 SKLEAQPFAHLTINATDIPSGSHKVSLSSWYHDRGWAKISNMTFSNGKLIVNQDGFYYLYANICFAHHETSGDLATEYLQLMVYVTKTSIKIPSSHTLMKGGSTKYWSGNSEFHFYSINVGGFFKLRSGEEISIEVSNPSLLAPDQDATYFGAFKVRDID
2,10.7,chain 1 SKLEAQPFAHLTINATDIPSGSHKVSLSSWYHDRGWAKISNMTFSNGKLIVNQDGFYYLYANICFAHHETSGDLATEYLQLMVYVTKTSIKIPSSHTLMKGGSTKYWSGNSEFHFYSINVGGFFKLRSGEEISIEVSNPSLLDPDQDATYFGAFKVRDID
3,2.15,chain 1 SKLEAQPFAHLTINATDIPSGSHKVSLSSWYHDRGWAKISNMTFSNGKLIVNQDGFYYLYANICFRHHETSGDLATEYLQLMVYVTKTSIKIPSSHTLMKGGSTKYWSGNSEFHFYSINVGGFFKLRSGEEISIEVSNPSLLAPDQDATYFGAFKVRDID
